Data: patent US20230203131A1 (OSAKA UNIVERSITY, published 2023)
Values belong to the molecule of their own block, whether it stands above or below them.

Columns and labels:
[1] = target: Perlecan-fused Chimera-511 (Chimera-511P), not treated with thrombin (human) (UniProt P02675); assay: solid-phase integrin binding assay (ELISA): Chimera-511P coated, α6β1 integrin titrated, as in Example 1 (5)
α6β1 integrin [2] = target: T1, α6β1 integrin (UniProt P23229 24-1011; P05556 21-728); assay: solid-phase integrin binding assay (ELISA): Chimera-511 coated at 10 nM, α6β1 integrin titrated 0.001-100 nM in 1 mM MnCl2
T1 construct: Soluble protein added to plates and detected with a biotin-labeled Velcro antibody
Method: (§1) The plates were incubated with gentle agitation at 4° C. overnight for coating.
(§2) Integrin binding assay was performed according to the method of Ido et al. (Hiroyuki Ido et al. J. Biol. Chem., 282, 11144-11154, 2007). The specific procedure was as follows. […] Next, TBST supplemented with 1% BSA was added at 200 μL/well, and the plates were incubated with agitation on a shaker (B. Braun Biotech International CERTOMAT MT) at room temperature for 1 hour for blocking. The plates were washed once with 200 μL/well of 0.1% BSA/TBST. α6β1 integrin was diluted to final concentrations of 0.001 nM, 0.003 nM, 0.01 nM, 0.03 nM, 0.1 nM, 0.3 nM, 1 nM, 3 nM, 10 nM, 30 nM, and 100 nM in 0.1% BSA/TBST containing 1 mM MnCl₂ or 10 mM EDTA. The diluted α6β1 integrin solutions were added to the plates at 50 μL/well and allowed to react with agitation using the shaker at room temperature for 3 hours.
(§3) After the reaction, the plates were washed three times with 200 μL/well of 1 mM MnCl₂/0.1% BSA/TBST or 10 mM EDTA/0.1% BSA/TBST. A 1.5 μg/mL solution of a biotin-labeled Velcro antibody (prepared as described in Takagi, J., Erickson, H. P. and Springer, T. A. (2001) Nat. Struct. Biol. 8, 412-416) in 1 mM MnCl₂/0.1% BSA/TBST was added at 50 μL/well and allowed to react with agitation using the shaker at room temperature for 30 minutes. […]

α6β1 integrin [3] = target: T1, α6β1 integrin; assay: solid-phase integrin binding assay (ELISA): LM511E8 coated at 10 nM, α6β1 integrin titrated 0.001-100 nM in 1 mM MnCl2
Method: as §1, §2, §3

T1 sequence (P23229 other isoform, or with tags, fused parts or gaps, chain 1 of 2): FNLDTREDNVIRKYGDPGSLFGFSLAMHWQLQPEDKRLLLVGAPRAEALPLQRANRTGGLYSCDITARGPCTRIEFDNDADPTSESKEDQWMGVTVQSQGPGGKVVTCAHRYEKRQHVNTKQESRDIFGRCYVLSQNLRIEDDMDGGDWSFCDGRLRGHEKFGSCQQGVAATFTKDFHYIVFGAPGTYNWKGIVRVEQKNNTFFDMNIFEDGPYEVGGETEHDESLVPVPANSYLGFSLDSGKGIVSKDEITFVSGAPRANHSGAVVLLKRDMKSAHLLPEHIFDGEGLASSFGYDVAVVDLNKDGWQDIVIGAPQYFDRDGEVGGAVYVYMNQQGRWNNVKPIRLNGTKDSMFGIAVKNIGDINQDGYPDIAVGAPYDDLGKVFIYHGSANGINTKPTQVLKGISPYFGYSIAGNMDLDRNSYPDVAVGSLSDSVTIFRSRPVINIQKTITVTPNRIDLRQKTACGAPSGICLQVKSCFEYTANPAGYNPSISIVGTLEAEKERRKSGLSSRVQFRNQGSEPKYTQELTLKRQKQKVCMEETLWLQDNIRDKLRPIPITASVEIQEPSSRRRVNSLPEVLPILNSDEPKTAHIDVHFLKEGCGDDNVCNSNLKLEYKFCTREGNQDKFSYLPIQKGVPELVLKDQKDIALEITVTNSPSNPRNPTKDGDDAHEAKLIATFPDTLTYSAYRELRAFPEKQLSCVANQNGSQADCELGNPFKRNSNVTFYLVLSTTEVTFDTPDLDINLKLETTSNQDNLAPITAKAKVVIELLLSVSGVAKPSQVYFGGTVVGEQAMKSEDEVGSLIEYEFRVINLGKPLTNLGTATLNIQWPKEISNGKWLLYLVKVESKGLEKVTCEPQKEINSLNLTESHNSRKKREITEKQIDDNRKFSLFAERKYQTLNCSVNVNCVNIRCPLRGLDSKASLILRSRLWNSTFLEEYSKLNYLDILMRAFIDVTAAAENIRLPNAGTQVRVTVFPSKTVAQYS
T1 sequence (P05556 21-728, chain 2 of 2): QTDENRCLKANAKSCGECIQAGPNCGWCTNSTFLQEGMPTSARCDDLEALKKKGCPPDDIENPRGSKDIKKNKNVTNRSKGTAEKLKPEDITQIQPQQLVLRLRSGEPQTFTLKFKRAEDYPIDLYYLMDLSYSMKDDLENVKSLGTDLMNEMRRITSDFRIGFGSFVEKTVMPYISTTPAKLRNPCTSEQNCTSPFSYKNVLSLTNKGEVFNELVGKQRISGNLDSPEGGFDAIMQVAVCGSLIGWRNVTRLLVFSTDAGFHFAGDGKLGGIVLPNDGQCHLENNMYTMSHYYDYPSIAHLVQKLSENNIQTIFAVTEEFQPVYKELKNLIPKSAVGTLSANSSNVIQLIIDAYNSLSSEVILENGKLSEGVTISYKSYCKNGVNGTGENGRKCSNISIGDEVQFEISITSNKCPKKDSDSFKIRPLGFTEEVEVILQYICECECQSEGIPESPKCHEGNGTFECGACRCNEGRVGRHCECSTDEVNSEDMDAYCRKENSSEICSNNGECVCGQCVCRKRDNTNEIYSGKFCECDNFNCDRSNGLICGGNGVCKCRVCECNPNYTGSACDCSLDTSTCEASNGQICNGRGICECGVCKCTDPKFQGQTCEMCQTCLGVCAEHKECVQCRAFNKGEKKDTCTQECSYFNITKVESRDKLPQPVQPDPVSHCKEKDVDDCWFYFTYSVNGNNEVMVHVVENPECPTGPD

Kd [1]: 0.9 nM
Molecule: α6β1 integrin (from UniProt P23229 24-1011; P05556 21-728) (receptor)

Kd (α6β1 integrin [2]): 0.58 nM
B1: Chimera-511 (chimeric protein having human fibrinogen fused to an integrin-binding domain of human laminin 511), not treated with thrombin (other)
chain 1: QGVNDNEEGFFSARGHRPLDKKREEAPSLRPAPPPISGGGYRARPAKAAATQKKVERKAPDAGGCLHADPDLGVLCPTGCQLQEALLQQERPIRNSVDELNNNVEAVSQTSSSSFQYMYLLKDLWQKRQKQVKDNENVVNEYSSELEKHQLYIDETVNSNIPTNIGRVRELIAQARGAASKVKVPMKFNGRSGVQLRTPRDLADLAAYTALKFYLQGPEPEPGQGTEDRFVMYMGSRQATGDYMGVSLRDKKVHWVYQLGEAGPAVLSIDEDIGEQFAAVSLDRTLQFGHMSVTVERQMIQETKGDTVAPGAEGLLNLRPDDFVFYVGGYPSTFTPPPLLRFPGYRGCIEMDTLNEEVVSLYNFERTFQLDTAVDRPCARSKSTGDPWLTDGSYLDGTGFARISFDSQISTTKRFEQELRLVSYSGVLFFLKQQSQFLCLAVQEGSLVLLYDFGAGLKKAVPLQPPPPLTSASKAIQVFLLGGSRKRVLVRVERATVYSVEQDNDLELADAYYLGGVPPDQLPPSLRRLFPTGGSVRGCVKGIKALGKYVDLKRLNTTGVSAGCTADLLVGRAMTFHGHGFLRLALSNVAPLTGNVYSGFGFHSAQDSALLYYRASPDGLCQVSLQQGRVSLQLLRTEVKTQAGFADGAPHYVAFYSNATGVWLYVDDQLQQMKPHRGPPPELQPQPEGPPRLLLGGLPESGTIYNFSGCISNVFVQRLLGPQRVFDLQQNLGSVNVSTGCAPALQAQTPGLGPRGLQAHHHHHHHHHH
chain 2: ADSGEGDFLAEGGGVRGPRVVERHQSACKDSDWPFCSDEDWNYKCPSGCRMKGLIDEVNQDFTNRINKLKNSLFEYQKNNKDSHSLTTNIMEILRGDFSSANNRDNTYNRVSEDLRSRIEVLKRKVIEKVQHLARLEGEVRSLLKDISQKVAVYSTCL
chain 3: YVATRDNCCILDERFGSYCPTTCGIADFLSTYQTKVDKDLQSLEDILHQVENKTSEVKQLIKAIQLTYNPDESSKPNMIDAATLKSRKMLEEIMKYEASILTHDSSIEEIMKDIRNLEDIRKTLPSGCFNTPSIEKP
notes: range 31-194;range 2716-3310;range 20-151;range 1761-1786;range 27-132;range 1579-1609; Chains in order: Chimera-α5, Chimera-β1, Chimera-γ1; also called Combination-3

Kd (α6β1 integrin [3]): 0.59 nM
B2: Human laminin 511E8 fragment (human laminin α5β1γ1E8) (other)
chain 1: HHHHHHAAEDAAGQALQQADHTWATVVRQGLVDRAQQLLANSTALEEAMLQEQQRLGLVWAALQGARTQLRDVRAKKDQLEAHIQAAQAMLAMDTDETSKKIAHAKAVAAEAQDTATRVQSQLQAMQENVERWQGQYEGLRGQDLGQAVLDAGHSVSTLEKTLPQLLAKLSILENRGVHNASLALSASIGRVRELIAQARGAASKVKVPMKFNGRSGVQLRTPRDLADLAAYTALKFYLQGPEPEPGQGTEDRFVMYMGSRQATGDYMGVSLRDKKVHWVYQLGEAGPAVLSIDEDIGEQFAAVSLDRTLQFGHMSVTVERQMIQETKGDTVAPGAEGLLNLRPDDFVFYVGGYPSTFTPPPLLRFPGYRGCIEMDTLNEEVVSLYNFERTFQLDTAVDRPCARSKSTGDPWLTDGSYLDGTGFARISFDSQISTTKRFEQELRLVSYSGVLFFLKQQSQFLCLAVQEGSLVLLYDFGAGLKKAVPLQPPPPLTSASKAIQVFLLGGSRKRVLVRVERATVYSVEQDNDLELADAYYLGGVPPDQLPPSLRRLFPTGGSVRGCVKGIKALGKYVDLKRLNTTGVSAGCTADLLVGRAMTFHGHGFLRLALSNVAPLTGNVYSGFGFHSAQDSALLYYRASPDGLCQVSLQQGRVSLQLLRTEVKTQAGFADGAPHYVAFYSNATGVWLYVDDQLQQMKPHRGPPPELQPQPEGPPRLLLGGLPESGTIYNFSGCISNVFVQRLLGPQRVFDLQQNLGSVNVSTGCAPALQAQTPGLGPRGLQATARKASRRSRQPARHPA
chain 2: LQHSAADIARAEMLLEEAKRASKSATDVKVTADMVKEALEEAEKAQVAAEKAIKQADEDIQGTQNLLTSIESETAASEETLFNASQRISELERNVEELKRKAAQNSGEAEYIEKVVYTVKQSAEDVKKTLDGELDEKYKKVENLIAKKTEESADARRKAEMLQNEAKTLLAQANSKLQLLKDLERKYEDNQRYLEDKAQELARLEGEVRSLLKDISQKVAVYSTCL
chain 3: EANDILNNLKDFDRRVNDNKTAAEEALRKIPAINQTITEANEKTREAQQALGSAAADATEAKNKAHEAERIASAVQKNATSTKAEAERTFAEVTDLDNEVNNMLKQLQEAEKELKRKQDDADQDMMMAGMASQAAQEAEINARKAKNSVTSLLSIINDLLEQLGQLDTVDLNKLNEIEGTLNKAKDEMKVSDLDRKVSDLENEAKKQEAAIMDYNRDIEEIMKDIRNLEDIRKTLPSGCFNTPSIEKP
notes: range 2534-3327;range 1561-1786;range 1362-1609; Heterotrimer of α5E8, β1E8 and γ1E8, expressed in 293-F cells; also called LM511E8; LM511 E8; not shown: HA tag, N-terminal; FLAG tag, N-terminal
